Laboratory results reported in US20080193431.

Molecular target: T1, Ac-DEVD-CHO
T1 chain: DEVD

B1: caspase-3 (protein)
chain: SGISLDNSYKMDYPEMGLCIIINNKNFHKSTGMTSRSGTDVDAANLRETFRNLKYEVRNKNDLTREEIVELMRDVSKEDHSKRSSFVCVLLSHGEEGIIFGTNGPVDLKKITNFFRGDRCRSLTGKPKLFIIQACRGTELDCGIETDSGVDDDMACHKIPVEADFLYAYSTAPGYYSWRNSKDGSWFIQSLCAMLKQYADKLEFMHILTRVNRKVATEFESFSFDATFHAKKQIPCIVSMLTKELYFYH
enzyme activity (caspase-3 cleavage of PPC, HPLC): completely blocked the enzyme activity
